Experimental data from US10799584B2, “Combination therapies using agents that target tumor-associated stroma or tumor cells and alkylating agents” (BIOMED VALLEY DISCOVERIES, INC., priority 2014, dated 2020).

B1: M830: TEM8 monoclonal antibody (hIgG1), VH SEQ ID NO:5, VL SEQ ID NO:6 (antibody, V domains shown)
VH: EVQLVESGGGVVQPGRSVRLSCAASGFTFSTYTMHWVRQAPGKGLEWVAIISNDGSNKYYADPVRGRFTISRDNSKNTLYLQMNSLRAEDTAVYYCVRGSSWYRGNWFDPWGQGTLVTVSS
VL: DIQMTQSPSSLSASVGDRVTIACRASQTISRYLNWYQQKPGKAPKLLIYAASSLQSGVSSRFSGSGSGTEFTLTISSLQPEDFATYFCQQTYSPPITFGQGTRLEIKR
modifications: TEM830 mAb VH; TEM830 mAb VL

Legend:
H460 tumors = assay: H460 xenograft model, M830 with gemcitabine, cisplatin or radiation; type: in vivo, nude mice; conditions: endpoint 2000 mm^3 or Day 58; logrank
Source text: (§1) The statistical tests were not adjusted for multiple comparisons.
Treatment began on Day 1 in eight groups of nude mice (n=10) with established subcutaneous H460 tumors of 75-126 mm^3. […] The study endpoint was a tumor volume of 2000 mm^3 or the final day, Day 58, whichever came first. […] The median TTE for controls was 15.6 days, establishing a maximum possible TGD of 42.4 days (272%) for the 58-day study.

H460 cells = assay: H460 non-small cell lung carcinoma xenograft model, M830 with bevacizumab or paclitaxel; type: in vivo, athymic nude mice; conditions: for % Tumor Reduction vs. combination partner at Day (#): Day 32
Method: Animals were monitored for regression responses.
as §1
Cultured H460 cells were harvested during exponential growth and resuspended in phosphate buffered saline at a concentration of 1×10^8 cells/mL. 1.0×10^7 tumor cells were injected subcutaneously into the flank of athymic nude mice. Animals were euthanized when tumors reached the pre-determined volume endpoint of 2000 mm^3 or on the final day (Day 88), whichever came first.

DLD-1 tumor cells = assay: DLD-1 colorectal adenocarcinoma xenograft model, first study; type: in vivo, mice; conditions: DLD1 Colon, Day 21
Method: Tumor weights were calculated following surgical removal. […] Irinotecan was given once per week at 60 mg/kg i.v. and bevacizumab was dosed at 5 mg/kg i.p., three times per week.

HCT116 tumor cells = assay: HCT116 colorectal carcinoma xenograft model, TEM8 antibodies; type: in vivo, mice; conditions: HCT116 Colon; no combination partner; M830 IP 3 times per week; start at 60-80 mm^3
Method: Tumor cells were cultured in RPMI-1640 medium supplemented with 10% fetal bovine serum, 2 mM glutamine, 100 units/mL penicillin G sodium, 100 μg/mL streptomycin sulfate, and 25 μg/mL gentamicin. The tumor cells were grown in tissue culture flasks in a humidified incubator at 37° C., in an atmosphere of 5% CO2 and 95% air.
2.5×10^6 to 5×10^6 HCT116 tumor cells were injected subcutaneously into the flank of mice. Tumor weights were calculated following surgical removal. Treatment was initiated when tumor volume reached 60-80 mm^3. Dosing volume was 10 mL/kg (0.2 mL/20 g mouse).
TEM8 Ab (hIgG1) doses were 5 and 15 mg/kg, three times per week, for 3 weeks. Bevacizumab was dosed at 5 mg/kg, twice per week, for 3 weeks. FIG. 1B and FIG. 1D show mean tumor growth and percent body weight change for each group, respectively, over the time course of the study.

[1] = combination partner Bevacizumab

Row | Molecule | outcome (survival) compared to vehicle-treated controls (H460 tumors) | % Tumor Reduction vs. combination partner at Day (#) (H460 cells; [1]) [%] | % Tumor Reduction vs. Vehicle at Day 21 (H460 cells; combination partner Bevacizumab, M830 IP 3 times per week) [%^] | regression (vs. Vehicle at Day 21) (H460 cells; combination partner Paclitaxel) | % Tumor Reduction vs. combination partner at Day (#) (H460 cells; combination partner Paclitaxel) [%] | % Tumor Reduction vs. combination partner at Day (#) (DLD-1 tumor cells; [1]) [%] | % Tumor Reduction vs. combination partner at Day (#) (DLD-1 tumor cells; combination partner Irinotecan) [%] | % Tumor Reduction vs. Vehicle at Day 21 (HCT116 tumor cells) [%^]
1 | N.N.[Cl][Pt][Cl] [Cisplatin, cisplatin] | statistically significant survival benefit |  |  |  |  |  |  | 
2 | Nc1ccn([C@@H]2O[C@H](CO)[C@@H](O)C2(F)F)c(=O)n1 [gemcitabine] | not statistically different |  |  |  |  |  |  | 
3 | B1 | not statistically different | 58.5 | 94.5 | (−61% | 94 | 48 | 53 | 39.5
